Source: article PMC5172437
Like-named read-outs stand apart in the source and are kept apart here.

How the values were obtained:
[1] = biological target: T1, human tumor necrosis factor alpha (hTNFa) (human, UniProt P01375 77-233); test: ELONA
[2] = biological target: T1, human tumor necrosis factor alpha …; test: ELONA; remark: listed apart in the source
[3] = biological target: T1, human tumor necrosis factor alpha …
[4] = biological target: T1, human tumor necrosis factor alpha …; remark: listed apart in the source
[5] = biological target: T1, human tumor necrosis factor alpha …; test: ELONA; remark: listed apart in the source

T1 sequence (P01375 77-233): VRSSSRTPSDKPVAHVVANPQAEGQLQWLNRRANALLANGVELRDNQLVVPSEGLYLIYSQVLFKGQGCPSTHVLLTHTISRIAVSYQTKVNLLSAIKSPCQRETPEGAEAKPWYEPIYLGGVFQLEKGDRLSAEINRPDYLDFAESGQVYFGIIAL

| Binder | binding result [2] | also measured |
| --- | --- | --- |
| CGCAUCGUUUGCGUGGCGUGUCCGGGCGCCGAUUCGUAAA (ssRNA) [7.5 random region] |  | binding result [1]: binds |
| CCCCGGGUUCUGUAUGAUCCGACCGGUCAGAUAAGACCAC (ssRNA) [3.1 random region] | binds |  |
| GGAGUAUCUGAUGACAAUUCGGAGCUCC (ssRNA) [T3.11.7 (28 nt)] |  | binding result [3]: binds |
| GGUCCCACAUAGGUUGGUCUUGUUGUAUGGGCUGUUUGCA (ssRNA) [18.10 random region] | binds |  |
| CGUUGUAGUAGUGGCUUGGGCAUAACUCAGUUAAACACUA (ssRNA) [20.4 random region] | binds |  |
| AGGACGUACUUGGAAAAGAGGCGCGAAGAACCUGGUAUGU (ssRNA) [8.6 random region] | binds |  |
| CGUAUAUACGGAUUAGGUUGUAGCUCAGACCAGUAAUGUC (ssRNA) [14.8 random region] |  | binding result [1]: binds |
| UCAUGGUGUGUGAGUUAGCUCACGUGCCGUUUCGAAGGCG (ssRNA) [13.2 random region] |  | binding result [1]: binds |
| UACGGAUUAGGUUGUAGCUCAGACCAGUA (ssRNA) [T4.14.8 (29 nt)] |  | binding result [4]: binds |
| CAUGGGCUAGACCGGCAUAAAACUGCUGUAGUUGCACGCC (ssRNA) [17.9 random region] | binds |  |
| CAAGCCGAGGGGGAGUAUCUGAUGACAAUUCGGAGCUCCA (ssRNA) [11.7 random region] |  | binding result [5]: binds |
| CGUGCUAGAUGCUACGAGUGGUCUCCUCACGUAGAAGGGG (ssRNA) [16.3 random region] | binds |  |
